Results as given in article PMC10931773.

T1: C-reactive protein (recombinant human CRP) (human) (UniProt P02741)
T1 sequence: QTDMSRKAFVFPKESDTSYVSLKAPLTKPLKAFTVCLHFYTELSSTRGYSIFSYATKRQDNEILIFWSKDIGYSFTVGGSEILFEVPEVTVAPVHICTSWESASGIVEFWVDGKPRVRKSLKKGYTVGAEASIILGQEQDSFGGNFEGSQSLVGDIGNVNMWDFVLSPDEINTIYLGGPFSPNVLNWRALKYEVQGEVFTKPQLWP

B1: anti-CRP single-chain variable fragment (scFv) (scFv, V domains shown)
VH: QVQLQQSGAELVKPGASVKLSCTASGFNIKDYYMHWVKQRTEQGLEWIGRIDPEDGETKYAPKFQGKATITADTSSNTAYLQLSSLTSEDTAVYYCARGYYGSEAMDYWGQGTSLTVSS
VL: SIVMTQSHKFMSTSVGDRVSITCKASQDVNTAVAWYQQKPGQSPKLLIYWASTRHTGVPDRFTGSGFGTDYTLTISSVQAEDLALYYCQQHYSTPWTFGGGTKLEIK
B2: monovalent antibody-enzyme complex (anti-CRP scFv-ST joined to GDH-SC) (complex)
VH: B1 VH
VL: B1 VL
B3: anti-CRP scFv-SpyTag (scFv, V domains shown)
VH: B1 VH
VL: B1 VL

target: T1, C-reactive protein (recombinant human CRP) (human); assay: SPR; Biacore T200; CRP immobilised on a CM5 chip by amine coupling (1074 RU); antibodies 0.50-75 nM injected at 30 µL/min, association and dissociation 120 s; 1:1 Langmuir global fit

Binder	Kd	koff	kon
B1	4.8 nM	0.0016 s⁻¹	350000 M⁻¹ s⁻¹
B2	28.7 nM	0.0019 s⁻¹	67000 M⁻¹ s⁻¹
B3	5 nM	0.0017 s⁻¹	340000 M⁻¹ s⁻¹
